Assay [1] has as its target T1, dengue type 1 virus (DENV-1), Western Pacific strain, virions (dengue type 1 virus, UniProt P17763 281-775; P17763 115-280). The experiment in a line: cell-based or functional assay.
The target in assay [2] is T2, dengue type 2 virus (DENV-2), prototype New Guinea C strain, virions (dengue type 2 virus, UniProt P14340 281-775; P14340 115-280). The experiment in a line: cell-based or functional assay.
In assay [3] the target is T3, dengue type 3 virus (DENV-3), strain H87, virions (dengue type 3 virus, UniProt P27915 281-773; P27915 115-280). The experiment in a line: cell-based or functional assay.
Assay [4] addresses T4, dengue type 4 virus (DENV-4), strain 814669, virions (dengue type 4 virus, UniProt P09866 280-774; P09866 114-279). The experiment in a line: cell-based or functional assay.
The target of assay [5] is T1, dengue type 1 virus (DENV-1), Western …. The experiment in a line: ELISA, virion-coated plate, Fab from ~140 µg/ml. In general terms: An ELISA detects its analyte on a solid surface through an enzyme-linked reagent.
Assay [6] concerns the target T2, dengue type 2 virus (DENV-2), prototype …. Briefly: ELISA, virion-coated plate, Fab from ~140 µg/ml.
In assay [7] the target is T3, dengue type 3 virus (DENV-3), strain …. The experiment in a line: ELISA, virion-coated plate, Fab from ~140 µg/ml.
The target in assay [8] is T4, dengue type 4 virus (DENV-4), strain …. The experiment in a line: ELISA, virion-coated plate, Fab from ~140 µg/ml.
The target is the same in assay [9]. The experiment in a line: cell-based or functional assay. The source holds these as a separate data set.
The target of the next assay is DENV-4 prM glycoprotein (dengue type 4 virus, UniProt P09866 114-279). Briefly: radioimmunoprecipitation of prM expressed alone by recombinant vaccinia virus.
Assay [10] has as its target T1, dengue type 1 virus (DENV-1), Western …. Briefly: ELISA, virion-coated plate, Fab from ~300 µg/ml.
In assay [11] the target is T2, dengue type 2 virus (DENV-2), prototype …. Briefly: ELISA, virion-coated plate, Fab from ~300 µg/ml.
The target of assay [12] is T3, dengue type 3 virus (DENV-3), strain …. Briefly: ELISA, virion-coated plate, Fab from ~300 µg/ml.
Assay [13] has as its target T4, dengue type 4 virus (DENV-4), strain …. Briefly: ELISA, virion-coated plate, Fab from ~300 µg/ml.
Another assay has as its target T5, DENV-4 E glycoprotein (dengue type 4 virus, UniProt P09866 280-774).
T5 construct: also called vDENV-4 E product
The experiment in a line: radioimmunoprecipitation of E expressed alone by recombinant vaccinia virus.

Like-named read-outs stand apart in the source and are kept apart here.

B1: chimpanzee Fab 2H7 (Fab, V domains shown)
VH: EVQLLESGGGLVQPGGSRRLSCAASGFTISDNVMHWVRQAPGKGLEWVALIYSADSTHYADSVKGRFTISRDNSKNTLYLQMDGLRPEDTAVYYCAREYCTGGTCFAHFDYWGQGTLVTVSS
VL: ELQMTQSPSSLSASVGDRVTITCRASQSITNYLSWYQQKPGKAPKLLISYSSTLQSGVPSRFSGSGSGTDFTLTISSLQPEDFATYYCHYGYGTHTFGPGTKVDIKR
In the case of B1, the “PRNT50 titer” value amounted to 0.26 µg/mL in assay [1], 0.33 µg/mL in [2], 5.92 µg/mL in assay [3] and 7.26 µg/mL in assay [4]. The “ELISA titer of Fab binding” value in [5] is 4.1 log10 of reciprocal dilution; in assay [6] it was 3.8 log10 of reciprocal dilution; in assay [7] it was 3.6 log10 of reciprocal dilution; in assay [8] it was 3.8 log10 of reciprocal dilution.

B2: chimpanzee Fab 3A2 (Fab, V domains shown)
VH: VQLLEQSGGGLVQPGGSRRLSCAVSGFTISDNVMHWVRQAPGKGLEWVALIYSADTTHYADSVKGRFTISRDNSKNTLYLQMDSLRPEDTAVYYCAREYCTGGTCFAHFDYWGQGTLVTVSS
VL: ELTQSPSSVSASVGDTVTIACRASQSITNYLSWYQQKPGKAPKLLIYHASTLQSGIPSRFSGSGSGTDFTLTISSLQPDDFATYYCHYGYGTHTFGQGTKLEIKR
On to B2, for which the “PRNT50 titer” value came to 0.37 µg/mL in assay [1], 1.33 µg/mL in [2], 2.99 µg/mL in assay [3] and 4.71 µg/mL in assay [4]. Further, the “ELISA titer of Fab binding” value is 4.1 log10 of reciprocal dilution in assay [5], 3.8 log10 of reciprocal dilution in assay [6], 3.8 log10 of reciprocal dilution in assay [7] and 3.8 log10 of reciprocal dilution in assay [8].

B3: chimpanzee Fab 3E4 (Fab, V domains shown)
VH: VQLLEQSGAEVKKPGGSVKVSCKVSGGTFSRNPISWVRQAPGQGLEWMSVIVPIVGTTKHAQKFQGRVTITADESTSTAYMELSSLRSEDTAVYYCATYRRYADVSSYSEYWGQGTLVTVSS
VL: ELTQSPLSLPVTLGQPASISCRSSQNLVHSDGNTYLSWIQQRPGQPPRLLIYKVSNRDSGVPDRFSGSGAGTDFTLKITRVEAEDVGLYYCVQGVQFPITFGQGTKLEIKR
Take B3: the “PRNT50 titer” value is 91 µg/mL in [9]; 42.7 µg/mL in assay [1]; above 100 µg/mL in [2]; above 100 µg/mL in assay [3]; 40.5 µg/mL in [4]. Moreover, in the assay with DENV-4 prM glycoprotein, the binding result is “no binding”. Moreover, the “ELISA titer of Fab binding” value in assay [10] is 4.61 log10 of reciprocal dilution; in assay [11], 4.31 log10 of reciprocal dilution; in [12], 4.61 log10 of reciprocal dilution; in assay [13] it was 4.61 log10 of reciprocal dilution; in [5], 4 log10 of reciprocal dilution; in assay [6], 3.8 log10 of reciprocal dilution. Besides, the “ELISA titer of Fab binding” value was 3.6 log10 of reciprocal dilution in [7] and 3.8 log10 of reciprocal dilution in assay [8].

B4: chimpanzee Fab 1B2 (Fab, V domains shown)
VH: EVQLLESGPGLVKPSQTLSLTCAVSGGSITSDHYFWSWMRQAPGRGLEWIGYISYRGTTYYNPSLKSRVTMSVTAAKNTLYLQMDGLRPEDTAVYYCARASVTAGMPAAGTLDHWGQGTLVTVSS
VL: ELQMTQSPSSLSASVGDRVTITCRASQGISSELNWYQQKPGKAPKLLIYDASSLESGVPSRFSGSGSGTDFTLTISSLQPEDFATYYCQHFNSFPWTFGQGTKLEIKR
B4: the “PRNT50 titer” value is 0.5 µg/mL in [1], 3.13 µg/mL in assay [2], above 100 µg/mL in assay [3] and 29.2 µg/mL in assay [4]. For the same molecule, the “ELISA titer of Fab binding” value in assay [5] is 3.9 log10 of reciprocal dilution; in [6] it was 3.8 log10 of reciprocal dilution; in [7] it was 3.8 log10 of reciprocal dilution; in assay [8], 3.8 log10 of reciprocal dilution.

B5: chimpanzee Fab 3C1 (Fab, V domains shown)
VH: EVQLLESGAEVKKPGGSVKVSCKVSGGTLSSYGISWVRQAPGQGPEWMGVIIPIRGTANYAQKFQGRVTYTADESTSTVYMELSSLRSEDTAVYYCATGRRGRYPTGSFDYWGQGALVTVSS
VL: ELQMTQSPSTLSASVGDRVTVTCRASEDLNKWLAWYQQKPGKAPKLLIYKASSLESGVPSRFSGSGSGTEFTLTISSLQPDDFATYYCQQYQSYPYTFGPGTKLEIKR
Turning to B5, the “PRNT50 titer” value in [9] was above 200 µg/mL. Also, the binding result with DENV-4 E glycoprotein is given as “no binding”. Further, the “ELISA titer of Fab binding” value was 1.3 log10 of reciprocal dilution in [10], 3.11 log10 of reciprocal dilution in assay [11], 1.3 log10 of reciprocal dilution in assay [12] and 3.71 log10 of reciprocal dilution in assay [13].

B6: chimpanzee Fab 7G4 (Fab, V domains shown)
VH: EVQLLESGGGLVQPGGSLTLSCAASGFTFSSYWMHWVRQAPGKGPEWVALIKKDGSEKYYAESVKGRFTISRDNAKNSLYLQMNSLRAEDTAVYYCTRRITTLTVISDAFDIWGQGTMVTVSS
VL: ELTQSPSTLSASVGDRVTITCRASQGISSWLAWYQQKPGKAPKFLIYKASSLESGVPSRFSGSGSGTEFTLTISSLQPDDFATYYCQQYGSYPLTFGPGTKVDIKR
For the molecule B6, the “PRNT50 titer” value in assay [9] worked out at 121 µg/mL. The binding result with DENV-4 prM glycoprotein was “no binding”. Besides, the “ELISA titer of Fab binding” value in assay [10], in assay [11], in assay [12] and in assay [13] was 4.01 log10 of reciprocal dilution each time.

B7: chimpanzee Fab 1A10 (Fab, V domains shown)
VH: VQLLEESGAEVKKPGSSVKVSCKVSGGTFSRNPISWVRQAPGQGLEWMGVIVPIVGTTKHAQKFQGRVTIIADESTSTAYMELSSLRSEDTAVYYCATYYADGSSYSEYWGQGTLVTVSS
VL: ELQMTQSPLSLSVAPGQPASISCKSSQSLLHSDGNTYLFWYLQKSGQSPQLLIYGLSNRASGVPDRFSGSGSGTDFTLKISQVEAEDVGVFYCMQGTQLPYTFGQGTKLEIKR
B7: the “PRNT50 titer” value was determined as 0.94 µg/mL in assay [1], 5.26 µg/mL in assay [2], 26.3 µg/mL in [3] and 12.6 µg/mL in assay [4]. The “ELISA titer of Fab binding” value was 4.1 log10 of reciprocal dilution in [5], 3.8 log10 of reciprocal dilution in assay [6], 3.6 log10 of reciprocal dilution in assay [7] and 3.8 log10 of reciprocal dilution in assay [8].

Source of the values: patent US20070134256A1 (US Dept. of Health and Human Services, published 2007).
